Values of other authors, collected in article PMC8061042.

Biological target: MS1
Sequence (main, as listed by the source): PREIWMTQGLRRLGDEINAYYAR

Kd: 1.9 nM
Substance: MCL-1 (from UniProt Q07820)
